# Data published in article PMC11194106.
# Biological target: Streptococcus pyogenes Cas9 (SpyCas9) (UniProt Q99ZW2)
# Assay: SEC co-migration followed by SDS-PAGE, band intensity quantified
# Conditions: parent: est. 99; read off a plot
substance,measurement,value
AcrIIA28 from Streptococcus phage Javan 128 H30W,response,81%
AcrIIA28 from Streptococcus phage Javan 128 K7D,response,41%
AcrIIA28 from Streptococcus phage Javan 128 K38W,response,83%
AcrIIA28 from Streptococcus phage Javan 128 K48D,response,93%
AcrIIA28 from Streptococcus phage Javan 128 R41W,response,96%
AcrIIA28 from Streptococcus phage Javan 128 S34W,response,97%
AcrIIA28 from Streptococcus phage Javan 128 S81W,response,21%
AcrIIA28 from Streptococcus phage Javan 128 W45I,response,3%
